# Tests used:
# [1] = biological target: Adenosine A2A receptor (A2AAR), human, residues 1 to 316, with the M1A/M4T mutation, reconstituted in rHDLs (nanodiscs) (human) (UniProt P29274)
# [2] = biological target: Adenosine A2A receptor (A2AAR), human, residues 1 to 316, with the M1A/M4T mutation, reconstituted in rHDLs (nanodiscs) (human) (UniProt P29274); remark: listed apart in the source
# [3] = biological target: Adenosine A2A receptor (A2AAR), human, residues 1 to 316, with the M1A/M4T mutation, reconstituted in rHDLs (nanodiscs) (human) (UniProt P29274); remark: listed apart in the source
# Sequence of Adenosine A2A receptor (A2AAR), human, residues 1 to 316, with the M1A/M4T mutation, reconstituted in rHDLs (nanodiscs) (human) (P29274 1-316 M1A/M4T): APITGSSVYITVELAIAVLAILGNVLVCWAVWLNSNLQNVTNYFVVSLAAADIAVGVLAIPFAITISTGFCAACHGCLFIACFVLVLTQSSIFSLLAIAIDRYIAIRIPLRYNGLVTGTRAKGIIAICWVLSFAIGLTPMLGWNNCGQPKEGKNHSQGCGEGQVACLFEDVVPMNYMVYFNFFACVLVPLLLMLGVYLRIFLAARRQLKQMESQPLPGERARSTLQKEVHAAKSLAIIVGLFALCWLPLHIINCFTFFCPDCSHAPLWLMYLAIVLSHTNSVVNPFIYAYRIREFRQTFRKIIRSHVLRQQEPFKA
# Sequence of heterotrimeric G protein consisting of human Gαs, bovine Gβ1, and human Gγ2 (P63092 whole entry): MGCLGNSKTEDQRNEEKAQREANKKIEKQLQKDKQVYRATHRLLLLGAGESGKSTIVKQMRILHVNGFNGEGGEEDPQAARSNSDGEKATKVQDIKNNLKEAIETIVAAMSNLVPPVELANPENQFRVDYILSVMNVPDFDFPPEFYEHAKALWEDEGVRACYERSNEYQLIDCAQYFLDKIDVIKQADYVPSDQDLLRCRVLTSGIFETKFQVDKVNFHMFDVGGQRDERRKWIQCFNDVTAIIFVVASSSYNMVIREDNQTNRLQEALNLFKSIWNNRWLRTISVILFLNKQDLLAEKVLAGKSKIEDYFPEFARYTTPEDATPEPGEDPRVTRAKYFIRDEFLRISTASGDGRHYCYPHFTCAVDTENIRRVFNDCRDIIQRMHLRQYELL
# Sequence of heterotrimeric G protein consisting of human Gαs, bovine Gβ1, and human Gγ2 (P62871 whole entry): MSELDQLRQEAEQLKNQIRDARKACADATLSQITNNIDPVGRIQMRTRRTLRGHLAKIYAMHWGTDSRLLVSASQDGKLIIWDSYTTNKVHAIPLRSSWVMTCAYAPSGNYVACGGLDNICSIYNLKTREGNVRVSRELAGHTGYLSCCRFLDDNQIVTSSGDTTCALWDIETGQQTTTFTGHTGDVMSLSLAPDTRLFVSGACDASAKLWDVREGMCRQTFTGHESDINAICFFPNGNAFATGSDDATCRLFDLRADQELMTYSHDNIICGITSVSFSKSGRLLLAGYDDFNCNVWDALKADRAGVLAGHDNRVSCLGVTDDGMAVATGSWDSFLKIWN
# Sequence of heterotrimeric G protein consisting of human Gαs, bovine Gβ1, and human Gγ2 (P59768 whole entry): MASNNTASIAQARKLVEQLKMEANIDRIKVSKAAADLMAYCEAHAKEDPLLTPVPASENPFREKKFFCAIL
substance,measurement,setting,value
"heterotrimeric G protein consisting of human Gαs, bovine Gβ1, and human Gγ2 (from UniProt P63092 1-394; P62871 1-340; P59768 1-71) (complex)","initial [35S]-GTPγS binding rate, A2AAR in rHDL(DHA) in which DHA constitutes 15% of the acyl chains, against A2AAR in rHDL(POPC/POPG)",[1],1.29 times
same,"GDP/GTP reaction rate, A2AAR in rHDL(DHA) against A2AAR in rHDL(ARA)",[2],1.7 fold
same,"initial [35S]-GTPγS binding rate, A2AAR in rHDL(ARA) against A2AAR in rHDL(POPC/POPG), full agonist",[3],1.1 times
same,"initial [35S]-GTPγS binding rate, A2AAR in rHDL(DHA) against A2AAR in rHDL(POPC/POPG), full agonist",[3],1.88 times

# Reference: article PMC7080496
